Values belong to the binder of their own block, whether it stands above or below them.
Key:
4H730-bH = target: T1, 4H730-bH; test: two-hybrid library CCNG1;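 note: natural log of median RNA to DNA barcode read ratio; higher means stronger binding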
T1 chain: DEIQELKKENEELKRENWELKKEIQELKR

4H3381-bH = target: T2, 4H3381-bH; test: two-hybrid library CCNG1;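 note: natural log of median RNA to DNA barcode read ratio; higher means stronger binding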
T2 chain: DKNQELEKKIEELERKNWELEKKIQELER

O5-bP = target: T3, O5-bP; test: two-hybrid library CCNG1;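 note: natural log of median RNA to DNA barcode read ratio; higher means stronger binding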
T3 chain: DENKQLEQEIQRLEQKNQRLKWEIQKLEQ

4H3364-bH = target: T4, 4H3364-bH; test: two-hybrid library CCNG1;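 note: natural log of median RNA to DNA barcode read ratio; higher means stronger binding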
T4 chain: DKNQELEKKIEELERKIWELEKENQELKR

4H932-bH = target: T5, 4H932-bH; test: two-hybrid library CCNG1;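 note: natural log of median RNA to DNA barcode read ratio; higher means stronger binding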
T5 chain: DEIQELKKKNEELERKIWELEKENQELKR

4H56-bH = target: T6, 4H56-bH; test: two-hybrid library CCNG1;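 note: natural log of median RNA to DNA barcode read ratio; higher means stronger binding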
T6 chain: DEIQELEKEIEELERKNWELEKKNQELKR

O16-bN = target: T7, O16-bN; test: two-hybrid library CCNG1
T7 chain: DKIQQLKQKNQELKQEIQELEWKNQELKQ

4H349-bH = target: T8, 4H349-bH; test: two-hybrid library CCNG1
T8 chain: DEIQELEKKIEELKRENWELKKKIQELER

4H796-bH = target: T9, 4H796-bH; test: two-hybrid library CCNG1
T9 chain: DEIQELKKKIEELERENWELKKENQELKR

4H949-bH = target: T10, 4H949-bH; test: two-hybrid library CCNG1
T10 chain: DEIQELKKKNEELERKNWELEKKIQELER

4H906-bH = target: T11, 4H906-bH; test: two-hybrid library CCNG1
T11 chain: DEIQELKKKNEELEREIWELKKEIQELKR

4H3638-bH = target: T12, 4H3638-bH; test: two-hybrid library CCNG1
T12 chain: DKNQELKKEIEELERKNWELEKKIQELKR

4H619-bH = target: T13, 4H619-bH; test: two-hybrid library CCNG1
T13 chain: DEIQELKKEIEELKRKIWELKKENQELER

4H584-bH = target: T14, 4H584-bH; test: two-hybrid library CCNG1
T14 chain: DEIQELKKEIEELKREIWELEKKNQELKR

4H570-bH = target: T15, 4H570-bH; test: two-hybrid library CCNG1
T15 chain: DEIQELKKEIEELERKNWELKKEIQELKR

4H850-bH = target: T16, 4H850-bH; test: two-hybrid library CCNG1
T16 chain: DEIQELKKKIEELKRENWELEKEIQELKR

4H3974-bH = target: T17, 4H3974-bH; test: two-hybrid library CCNG1
T17 chain: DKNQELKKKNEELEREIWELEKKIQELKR

4H3817-bH = target: T18, 4H3817-bH; test: two-hybrid library CCNG1
T18 chain: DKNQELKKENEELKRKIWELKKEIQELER

4H3631-bH = target: T19, 4H3631-bH; test: two-hybrid library CCNG1
T19 chain: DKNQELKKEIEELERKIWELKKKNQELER

4H3414-bH = target: T20, 4H3414-bH; test: two-hybrid library CCNG1
T20 chain: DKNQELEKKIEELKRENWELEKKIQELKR

4H683-bA = target: T21, 4H683-bA; test: two-hybrid library CCNG1
T21 chain: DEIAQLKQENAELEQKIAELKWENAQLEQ

AP7-AA = target: T22, AP7-AA; test: two-hybrid library CCmax; details: mean of both orientations
T22 chain: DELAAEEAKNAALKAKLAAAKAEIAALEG

P1-AA = target: T23, P1-AA; test: two-hybrid library CCmax; details: mean of both orientations
T23 chain: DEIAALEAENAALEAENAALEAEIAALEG

P10-AA = target: T24, P10-AA; test: two-hybrid library CCmax; details: mean of both orientations
T24 chain: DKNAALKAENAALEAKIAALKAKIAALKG

P12-AA = target: T25, P12-AA; test: two-hybrid library CCmax; details: mean of both orientations
T25 chain: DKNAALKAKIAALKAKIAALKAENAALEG

GCN2_T = test: two-hybrid library CCmax
AP5-AA = target: T26, AP5-AA; test: two-hybrid library CCmax; details: mean of both orientations
T26 chain: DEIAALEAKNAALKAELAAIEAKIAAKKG

P9-AA = target: T27, P9-AA; test: two-hybrid library CCmax; details: mean of both orientations
T27 chain: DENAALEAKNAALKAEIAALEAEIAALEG

AP4-AA = target: T28, AP4-AA; test: two-hybrid library CCmax
T28 chain: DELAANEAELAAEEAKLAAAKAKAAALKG

AP8-AA = target: T29, AP8-AA; test: two-hybrid library CCmax; details: mean of both orientations
T29 chain: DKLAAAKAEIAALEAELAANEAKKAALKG

P2-AA = target: T30, P2-AA; test: two-hybrid library CCmax; details: mean of both orientations
T30 chain: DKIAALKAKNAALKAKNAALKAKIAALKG

P8-AA = target: T31, P8-AA; test: two-hybrid library CCmax; details: mean of both orientations
T31 chain: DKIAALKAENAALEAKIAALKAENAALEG

AP6-AA = target: T32, AP6-AA; test: two-hybrid library CCmax; details: mean of both orientations
T32 chain: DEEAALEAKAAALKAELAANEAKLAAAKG

P7-AA = target: T33, P7-AA; test: two-hybrid library CCmax; details: mean of both orientations
T33 chain: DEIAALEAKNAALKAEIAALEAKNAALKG

P4-AA = target: T34, P4-AA; test: two-hybrid library CCmax; details: mean of both orientations
T34 chain: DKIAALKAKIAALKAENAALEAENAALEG

P3-AA = target: T35, P3-AA; test: two-hybrid library CCmax; details: mean of both orientations
T35 chain: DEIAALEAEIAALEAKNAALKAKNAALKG

P11-AA = target: T36, P11-AA; test: two-hybrid library CCmax; details: mean of both orientations
T36 chain: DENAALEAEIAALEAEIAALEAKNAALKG

- interaction score (4H730-bH): -0.811
- interaction score (4H3381-bH): 0.55
- interaction score (O5-bP): 0.546
- interaction score (4H3364-bH): 1.55
- interaction score (4H932-bH): -0.252
- interaction score (4H56-bH): -0.464
- interaction score (O16-bN): 0.622
- interaction score (4H349-bH): -0.118
- interaction score (4H796-bH): -0.523
- interaction score (4H949-bH): 0.153
Binder: DKNQELEKKIEELERKIWELEKENQELKR [4H3364-bH]

- interaction score (4H906-bH): -0.25
- interaction score (4H3638-bH): -1.45
- interaction score (4H619-bH): 0.721
- interaction score (4H584-bH): -0.695
- interaction score (4H570-bH): 0.846
- interaction score (4H850-bH): 0.00973
- interaction score (4H3974-bH): 0.33
- interaction score (4H3817-bH): 0.48
- interaction score (4H3631-bH): 0.689
- interaction score (4H3414-bH): 0.938
- interaction score (4H683-bA): 0.0371
Binder: DKNQELEKKIEELKRENWELEKKIQELKR [4H3414-bH]

- interaction score (AP7-AA): -1.78
- interaction score (P1-AA): -1.34
- interaction score (P10-AA): -1.25
- interaction score (P12-AA): -1.45
- interaction score (GCN2_T): -1.55
- interaction score (AP5-AA): -1.51
- interaction score (P9-AA): -1.6
- interaction score (AP4-AA): -1.46
- interaction score (AP8-AA): -1.25
- interaction score (P2-AA): -1.78
- interaction score (P8-AA): -1.15
- interaction score (AP6-AA): -2.03
- interaction score (P7-AA): -1.82
- interaction score (P4-AA): -1.48
- interaction score (P3-AA): -1.14
- interaction score (P11-AA): -0.858
Binder: DELAANEAELAAEEAKLAAAKAKAAALKG [AP4-AA]
